Test results from patent US20240262879.

What was measured:
[1] = system: BI-050
[2] = system: BI-051
[3] = system: BI-052
[4] = system: BI-054
[5] = system: BI-055
[6] = system: BI-059
[7] = system: Control (peptide of Table 12)
[8] = system: Peptide 10
[9] = system: Peptide 5 (GPLGVRG)
[10] = system: Peptide 8

Chain of rmMMP2 (chain, as listed by the source): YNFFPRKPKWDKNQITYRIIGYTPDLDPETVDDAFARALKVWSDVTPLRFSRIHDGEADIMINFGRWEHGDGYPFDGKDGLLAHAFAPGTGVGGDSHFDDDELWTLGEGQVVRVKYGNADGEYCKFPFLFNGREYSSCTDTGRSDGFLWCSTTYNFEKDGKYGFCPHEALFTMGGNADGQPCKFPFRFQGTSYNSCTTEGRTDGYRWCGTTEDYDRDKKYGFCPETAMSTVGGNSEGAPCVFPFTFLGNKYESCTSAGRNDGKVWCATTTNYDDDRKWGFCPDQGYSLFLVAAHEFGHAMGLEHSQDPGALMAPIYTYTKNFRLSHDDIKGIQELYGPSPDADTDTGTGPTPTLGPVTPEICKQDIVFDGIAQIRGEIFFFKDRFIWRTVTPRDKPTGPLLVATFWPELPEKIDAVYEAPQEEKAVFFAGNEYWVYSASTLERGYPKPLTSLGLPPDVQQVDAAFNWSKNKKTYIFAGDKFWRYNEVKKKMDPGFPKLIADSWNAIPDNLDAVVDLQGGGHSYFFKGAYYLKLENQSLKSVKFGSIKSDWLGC
Chain of rhMMP9 (chain, as listed by the source): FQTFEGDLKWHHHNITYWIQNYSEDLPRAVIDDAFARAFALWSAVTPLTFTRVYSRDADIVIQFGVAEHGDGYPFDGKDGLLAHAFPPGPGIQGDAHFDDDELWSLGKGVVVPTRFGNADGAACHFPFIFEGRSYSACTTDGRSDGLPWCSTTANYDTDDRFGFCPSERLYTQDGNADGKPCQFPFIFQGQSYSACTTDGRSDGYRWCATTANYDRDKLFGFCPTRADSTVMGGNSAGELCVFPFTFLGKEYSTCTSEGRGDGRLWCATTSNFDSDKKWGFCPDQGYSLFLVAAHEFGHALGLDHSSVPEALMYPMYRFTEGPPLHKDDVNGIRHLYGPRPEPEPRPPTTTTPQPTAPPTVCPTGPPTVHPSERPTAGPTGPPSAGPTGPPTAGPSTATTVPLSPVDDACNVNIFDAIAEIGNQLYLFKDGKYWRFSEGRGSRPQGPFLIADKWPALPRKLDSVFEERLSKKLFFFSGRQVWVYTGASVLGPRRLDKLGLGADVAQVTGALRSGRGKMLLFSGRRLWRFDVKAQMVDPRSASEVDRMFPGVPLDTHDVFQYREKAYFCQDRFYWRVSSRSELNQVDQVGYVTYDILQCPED
Chain of rhMMP3 (chain, as listed by the source): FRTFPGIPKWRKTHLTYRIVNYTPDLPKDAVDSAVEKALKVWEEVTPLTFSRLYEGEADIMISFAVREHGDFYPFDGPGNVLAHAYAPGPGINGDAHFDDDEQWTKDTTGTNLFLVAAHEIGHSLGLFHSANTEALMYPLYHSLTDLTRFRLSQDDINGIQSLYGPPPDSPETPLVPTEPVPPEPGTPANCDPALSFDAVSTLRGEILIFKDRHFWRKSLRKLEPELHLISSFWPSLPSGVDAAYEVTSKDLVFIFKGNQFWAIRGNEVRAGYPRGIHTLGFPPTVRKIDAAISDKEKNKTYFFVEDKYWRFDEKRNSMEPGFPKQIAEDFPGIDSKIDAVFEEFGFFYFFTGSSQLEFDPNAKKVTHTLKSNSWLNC
Chain of BI-055 (chain, as listed by the source, chain 1 of 2): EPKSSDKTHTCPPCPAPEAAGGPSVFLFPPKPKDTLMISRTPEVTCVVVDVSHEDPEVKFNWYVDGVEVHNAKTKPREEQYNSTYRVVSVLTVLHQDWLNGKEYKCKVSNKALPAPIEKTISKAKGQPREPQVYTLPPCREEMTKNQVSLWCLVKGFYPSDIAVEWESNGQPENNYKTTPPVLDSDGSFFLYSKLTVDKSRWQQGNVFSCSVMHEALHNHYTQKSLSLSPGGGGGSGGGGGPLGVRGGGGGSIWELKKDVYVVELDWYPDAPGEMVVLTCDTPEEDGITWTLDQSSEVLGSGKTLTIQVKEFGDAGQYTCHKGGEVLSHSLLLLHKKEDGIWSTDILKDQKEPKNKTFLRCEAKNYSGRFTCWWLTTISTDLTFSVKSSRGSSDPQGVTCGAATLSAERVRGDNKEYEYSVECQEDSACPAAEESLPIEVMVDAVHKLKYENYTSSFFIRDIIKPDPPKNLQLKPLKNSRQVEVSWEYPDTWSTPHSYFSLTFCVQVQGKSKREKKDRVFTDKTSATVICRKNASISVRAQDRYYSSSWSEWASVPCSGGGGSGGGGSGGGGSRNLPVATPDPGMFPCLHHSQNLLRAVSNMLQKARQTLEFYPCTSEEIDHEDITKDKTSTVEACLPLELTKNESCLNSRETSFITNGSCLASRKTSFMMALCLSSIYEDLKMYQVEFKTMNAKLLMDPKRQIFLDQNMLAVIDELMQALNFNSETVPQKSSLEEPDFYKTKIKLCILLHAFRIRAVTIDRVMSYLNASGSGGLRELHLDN
Chain of BI-055 (chain, as listed by the source, chain 2 of 2): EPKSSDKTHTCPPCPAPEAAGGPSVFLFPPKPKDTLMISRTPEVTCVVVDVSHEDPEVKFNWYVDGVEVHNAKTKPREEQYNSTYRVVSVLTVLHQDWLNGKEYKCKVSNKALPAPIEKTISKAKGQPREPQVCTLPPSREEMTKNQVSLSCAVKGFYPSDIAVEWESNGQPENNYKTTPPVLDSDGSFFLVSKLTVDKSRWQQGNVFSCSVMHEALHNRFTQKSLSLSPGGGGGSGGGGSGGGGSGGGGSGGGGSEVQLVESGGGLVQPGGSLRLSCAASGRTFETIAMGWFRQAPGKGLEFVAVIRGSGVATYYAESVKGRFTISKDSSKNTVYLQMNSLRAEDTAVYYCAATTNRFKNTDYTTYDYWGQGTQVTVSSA
Chain of BI-052 (chain, as listed by the source, chain 1 of 2): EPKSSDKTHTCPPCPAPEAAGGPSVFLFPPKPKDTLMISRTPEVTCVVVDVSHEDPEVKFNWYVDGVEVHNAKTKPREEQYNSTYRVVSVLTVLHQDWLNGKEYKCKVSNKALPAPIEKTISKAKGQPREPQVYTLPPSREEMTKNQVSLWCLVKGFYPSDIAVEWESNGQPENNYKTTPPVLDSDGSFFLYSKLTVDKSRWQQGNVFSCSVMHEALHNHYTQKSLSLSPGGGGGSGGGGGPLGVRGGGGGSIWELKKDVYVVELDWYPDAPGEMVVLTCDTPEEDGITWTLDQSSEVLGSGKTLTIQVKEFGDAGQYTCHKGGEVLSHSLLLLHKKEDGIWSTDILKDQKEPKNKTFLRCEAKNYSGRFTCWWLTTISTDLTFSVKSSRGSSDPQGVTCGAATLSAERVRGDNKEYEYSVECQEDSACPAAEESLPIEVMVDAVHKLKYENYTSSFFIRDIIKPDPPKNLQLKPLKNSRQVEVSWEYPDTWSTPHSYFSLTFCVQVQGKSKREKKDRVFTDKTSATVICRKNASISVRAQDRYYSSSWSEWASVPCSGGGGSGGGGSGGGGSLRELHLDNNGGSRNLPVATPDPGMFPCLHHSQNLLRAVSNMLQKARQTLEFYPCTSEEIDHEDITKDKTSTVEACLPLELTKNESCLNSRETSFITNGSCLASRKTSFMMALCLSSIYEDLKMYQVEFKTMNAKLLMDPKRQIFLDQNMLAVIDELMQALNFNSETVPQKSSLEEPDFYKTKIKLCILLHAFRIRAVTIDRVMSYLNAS
Chain of BI-052 (chain, as listed by the source, chain 2 of 2): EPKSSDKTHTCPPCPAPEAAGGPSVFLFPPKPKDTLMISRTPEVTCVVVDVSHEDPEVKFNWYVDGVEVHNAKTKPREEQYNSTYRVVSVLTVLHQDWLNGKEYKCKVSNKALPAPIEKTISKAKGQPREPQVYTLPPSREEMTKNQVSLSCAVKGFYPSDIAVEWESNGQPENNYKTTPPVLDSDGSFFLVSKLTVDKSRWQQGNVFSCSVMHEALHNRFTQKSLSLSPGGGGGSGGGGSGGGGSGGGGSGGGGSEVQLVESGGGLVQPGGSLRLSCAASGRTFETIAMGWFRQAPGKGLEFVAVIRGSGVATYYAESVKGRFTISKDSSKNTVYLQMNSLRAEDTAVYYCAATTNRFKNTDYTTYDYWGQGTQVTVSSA
Chain of BI-059 (chain, as listed by the source, chain 1 of 2): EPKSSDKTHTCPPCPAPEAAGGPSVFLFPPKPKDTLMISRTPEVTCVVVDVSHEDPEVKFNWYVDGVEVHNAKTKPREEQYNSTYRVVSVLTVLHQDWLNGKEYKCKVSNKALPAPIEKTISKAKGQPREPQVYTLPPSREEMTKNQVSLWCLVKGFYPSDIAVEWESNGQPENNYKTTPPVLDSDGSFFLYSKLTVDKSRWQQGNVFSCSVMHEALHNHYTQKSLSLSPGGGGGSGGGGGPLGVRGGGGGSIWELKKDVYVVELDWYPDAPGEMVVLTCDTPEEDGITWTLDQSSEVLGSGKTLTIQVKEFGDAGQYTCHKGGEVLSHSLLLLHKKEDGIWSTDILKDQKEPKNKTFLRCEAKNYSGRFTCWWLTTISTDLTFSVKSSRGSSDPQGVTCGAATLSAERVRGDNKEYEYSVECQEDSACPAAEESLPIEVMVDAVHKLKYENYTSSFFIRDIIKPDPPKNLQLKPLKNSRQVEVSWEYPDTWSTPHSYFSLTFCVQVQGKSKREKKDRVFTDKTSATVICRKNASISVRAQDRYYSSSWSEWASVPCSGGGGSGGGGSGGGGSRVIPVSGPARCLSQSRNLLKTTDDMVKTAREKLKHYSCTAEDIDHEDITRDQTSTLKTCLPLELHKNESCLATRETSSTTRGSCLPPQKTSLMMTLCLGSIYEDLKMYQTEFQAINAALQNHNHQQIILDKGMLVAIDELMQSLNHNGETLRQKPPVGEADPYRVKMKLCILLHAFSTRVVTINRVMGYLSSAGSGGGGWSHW

Row | Substance | cleavage shown by SDS-PAGE [1] | cleavage shown by SDS-PAGE [2] | cleavage shown by SDS-PAGE [3] | cleavage shown by SDS-PAGE [4] | cleavage shown by SDS-PAGE [5] | cleavage by Western blot [6] | Specific Activity [7] | Specific Activity [8] | Specific Activity [9] | Specific Activity [10]
1 | rhMMP9 | efficiently cleaved | efficiently cleaved | efficiently cleaved | efficiently cleaved | efficiently cleaved | efficiently cleaved with the human tumor lysates to the level comparable to activated MMP9 | 10 pmol/min/µg | 63.6 pmol/min/µg | 200 pmol/min/µg | 123 pmol/min/µg
2 | rmMMP2 | – | – | – | – | – | – | 10 pmol/min/µg | 98.9 pmol/min/µg | 165 pmol/min/µg | 233 pmol/min/µg
3 | rhMMP3 | – | – | – | – | – | – | 10 pmol/min/µg | 18.3 pmol/min/µg | 14.2 pmol/min/µg | 51.2 pmol/min/µg
